Measured values taken from the supplement of paper PMC7877785.
± gives the uncertainty stated by the source.

Assay: self-splicing fitness, log relative to wild type (ln ratio); higher = more splicing; Tetrahymena group I intron in knt gene, E. coli kanamycin selection, DiMSum; sequences stand for … in CUCUCU…GGAGGGAAAAGUUAUCAGGCAUGCACCUGGUAGCUAGUCUUUAAACCAAUAGAUUGCAUCGGUUUAAAAGGCAAGACCGUCAAAUUGCGGGAAAGGGGUCAACAGCCGUUCAGUACCAAGUCUCAGGGGAAACUUUGAGAUGGCCUUGCAAAGGGUAUGGUAAUAAGCUGACGGACAUGGUCCUAACCACGCAGCCAAGUCCUAAGUCAACAGAUCUUCUGUUGAUAUGGAUGCAGUUCACAGACUAAAUGUCGGUCGGGGAAGAUGUAUUCUUCUCAUAAGAUAUAGUCGGACCUCUCCUUAAUGGGAGCUAGCGGAUGAAGUGAUGCAACACUGGAGCCGCUGGGAACUAAUUUGUAUGCGAAAGUAUAUUGAUUAGUUUUGGAGUACUCGUGGUCG
Summary of the method: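 DiMSum derived fitness as the error-weighted combination of fold changes across replicates, kanamycin versus no kanamycin, normalised to wild type. E. coli BL21(DE3) held the library, which randomised all eight P1ex-region intron nucleotides within the knt kanamycin-resistance gene on pET-22b(+). Six replicate transformations grew overnight at 37°C or 30°C on LB agar with or without 25 μg/mL kanamycin, also containing 100 μg/mL carbenicillin, 50 μM IPTG and 0.2% rhamnose, and pooled colonies were amplicon-sequenced on an Illumina HiSeq 2500.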

Sequence	self-splicing fitness (ln) (30 °C)	self-splicing fitness (ln) (37 °C)
GGCUAGCAAUAUUACGUUAU	-0.733 ± 0.072	-0.394 ± 0.091
CACGAGCAAUAUUACGCUAA	-2.95 ± 0.34	-2.75 ± 0.22
GUUCAGCAAUAUUACGGGGC	-2.68 ± 0.16	-2.78 ± 0.21
CACUAGCAAUAUUACGAAGU	-2.82 ± 0.21	-3.06 ± 0.29
AUAGAGCAAUAUUACGGGAC	-2.71 ± 0.18	-2.36 ± 0.27
CCUUAGCAAUAUUACGUCAU	-3.85 ± 0.21	-2.96 ± 0.24
CUAGAGCAAUAUUACGUAUA	-3.08 ± 0.49	
GGCAAGCAAUAUUACGAAAA	-0.934 ± 0.1	-1.41 ± 0.15
UCGUAGCAAUAUUACGUACA	-1.71 ± 0.24	-1.73 ± 0.26
CUUGAGCAAUAUUACGCCUG		-1.13 ± 0.36
GUGGAGCAAUAUUACGGUAC	-2.81 ± 0.14	-1.71 ± 0.15
CGUUAGCAAUAUUACGAAGG	-1.69 ± 0.1	-0.895 ± 0.11
GAUCAGCAAUAUUACGAGUA	-1.2 ± 0.12	-0.817 ± 0.092
CUGCAGCAAUAUUACGCGCC	-3.33 ± 0.33	-2.17 ± 0.24
AUAGAGCAAUAUUACGCACA	-0.178 ± 0.09	-0.032 ± 0.11
CCGAAGCAAUAUUACGAGCU	-3.83 ± 0.27	-2.47 ± 0.19
UACCAGCAAUAUUACGCCAU	-3.27 ± 0.22	-2.85 ± 0.16
UGAUAGCAAUAUUACGAGAG	-3.29 ± 0.43	-1.65 ± 0.18
ACCUAGCAAUAUUACGCGUA	-2.46 ± 0.17	-1.22 ± 0.11
GGAUAGCAAUAUUACGUUAA	-2.35 ± 0.16	-1.9 ± 0.16
GAGCAGCAAUAUUACGAUCU	-1.71 ± 0.15	-0.141 ± 0.12
AGCCAGCAAUAUUACGAAAC	-3.51 ± 0.48	-1.38 ± 0.26
GGCUAGCAAUAUUACGAGGC	-2.31 ± 0.24	
GCUCAGCAAUAUUACGGACU	0.158 ± 0.12	0.485 ± 0.19
AUAGAGCAAUAUUACGCAAU	-0.971 ± 0.14	0.283 ± 0.2
UUGAAGCAAUAUUACGAGUU	-3.34 ± 0.17	-1.58 ± 0.17
UCGAAGCAAUAUUACGUAAU	-3.88 ± 0.15	-1.62 ± 0.12

Sequence	self-splicing fitness (ln) (30 °C)	self-splicing fitness (ln) (37 °C)
ACCCAGCAAUAUUACGUCUG	-3.16 ± 0.12	-2.79 ± 0.14
CGGAAGCAAUAUUACGUCGA	-2.59 ± 0.19	-1.67 ± 0.18
AGGCAGCAAUAUUACGACUG	-1.99 ± 0.14	-2.18 ± 0.18
AGACAGCAAUAUUACGCCGC		-1.62 ± 0.38
AAAAAGCAAUAUUACGCGUU	-2.73 ± 0.11	-1.44 ± 0.11
CGCGAGCAAUAUUACGGGUA	-2.5 ± 0.23	-2.11 ± 0.24
UCAGAGCAAUAUUACGCGAU	-3.02 ± 0.26	-2.08 ± 0.4
ACACAGCAAUAUUACGUCCG	-1.3 ± 0.079	0.213 ± 0.11
UAUCAGCAAUAUUACGUUAA	-0.97 ± 0.093	-0.0683 ± 0.11
GGGAAGCAAUAUUACGCACA	-2.53 ± 0.26	-0.142 ± 0.41
GAAGAGCAAUAUUACGCCAC	-3.28 ± 0.41	-2.48 ± 0.41
GUACAGCAAUAUUACGCGAC	-4.09 ± 0.28	-1.87 ± 0.16
UGAUAGCAAUAUUACGUUUA	-2.2 ± 0.12	-0.742 ± 0.1
ACACAGCAAUAUUACGGCUU	-0.496 ± 0.04	-0.0695 ± 0.057
ACCGAGCAAUAUUACGCCAA		-2.01 ± 0.3
UGAAAGCAAUAUUACGGAAG	-1.78 ± 0.11	-1.15 ± 0.14
GGCAAGCAAUAUUACGUAUA	-1.02 ± 0.066	-0.515 ± 0.07
ACUGAGCAAUAUUACGCCGU		-2.31 ± 0.4
CCUUAGCAAUAUUACGUUAU	-2.42 ± 0.14	-2.45 ± 0.28
UUUAAGCAAUAUUACGCGCG	0.181 ± 0.12	-0.26 ± 0.14
AUUGAGCAAUAUUACGAGCA	-3.01 ± 0.47	-1.93 ± 0.42
GGUGAGCAAUAUUACGUACC	-3.31 ± 0.44	-1.75 ± 0.37
CUACAGCAAUAUUACGUAAU	-3.8 ± 0.19	-2.84 ± 0.18
UGAAAGCAAUAUUACGAAUC	-3.58 ± 0.21	-2.53 ± 0.21
AUCCAGCAAUAUUACGACGC	-1.16 ± 0.12	-0.49 ± 0.15
AGGAAGCAAUAUUACGGGAC	-3.5 ± 0.46	-1.67 ± 0.23
UUCGAGCAAUAUUACGUCGA		-1.49 ± 0.19

Sequence	self-splicing fitness (ln) (30 °C)	self-splicing fitness (ln) (37 °C)
UGCUAGCAAUAUUACGGAUU	-1.7 ± 0.14	-2.02 ± 0.13
AUGAAGCAAUAUUACGAAGU	-1.21 ± 0.1	-0.533 ± 0.12
CUUUAGCAAUAUUACGUAUG	-0.82 ± 0.11	-0.4 ± 0.12
CGUUAGCAAUAUUACGUAAU	-2.88 ± 0.24	-1.63 ± 0.25
AGAAAGCAAUAUUACGGCUG	-0.141 ± 0.11	-0.414 ± 0.16
CGUUAGCAAUAUUACGACGU	-2.74 ± 0.14	-2.05 ± 0.16
AGUUAGCAAUAUUACGCACG	-1.42 ± 0.19	0.196 ± 0.22
UGAUAGCAAUAUUACGCAAA	-2.25 ± 0.19	-0.0467 ± 0.16
AUCGAGCAAUAUUACGCACU	-1.25 ± 0.12	-0.213 ± 0.14
GACCAGCAAUAUUACGACCC	-0.132 ± 0.14	0.75 ± 0.18
GCAGAGCAAUAUUACGCGGA	-3.11 ± 0.34	-2.91 ± 0.35
UGUGAGCAAUAUUACGCUUC	-2.97 ± 0.39	
UGAUAGCAAUAUUACGAGCA	-0.12 ± 0.094	-0.0253 ± 0.14
UUUUAGCAAUAUUACGCACG	-0.889 ± 0.13	-0.745 ± 0.17
GCAGAGCAAUAUUACGAGAG	-3 ± 0.47	-1.95 ± 0.32
GCUCAGCAAUAUUACGAUAC	-1.15 ± 0.13	-0.697 ± 0.17
CAAGAGCAAUAUUACGAUCC	-2.49 ± 0.42	-2.15 ± 0.5
GCAAAGCAAUAUUACGCCGU	-2.85 ± 0.21	-2.46 ± 0.23
AUGAAGCAAUAUUACGGUAA	-1.22 ± 0.065	-0.5 ± 0.088
CAAUAGCAAUAUUACGGGCC		-1.94 ± 0.29
GGUUAGCAAUAUUACGUCUC	-0.348 ± 0.15	-0.0912 ± 0.18
GUCGAGCAAUAUUACGGACG	-1.43 ± 0.18	-0.738 ± 0.21
GCAAAGCAAUAUUACGUGGG	-3.38 ± 0.15	-3.07 ± 0.16
GCCGAGCAAUAUUACGUAUG	-3.36 ± 0.25	-3.11 ± 0.38
CAACAGCAAUAUUACGGUUA	-0.258 ± 0.048	0.275 ± 0.056
